One molecule from publication PMC5507214 can be followed below.

One data set addresses T1, RNaseH1 D210N (Homo sapiens, UniProt O60930 27-286, D210N).
T1 sequence: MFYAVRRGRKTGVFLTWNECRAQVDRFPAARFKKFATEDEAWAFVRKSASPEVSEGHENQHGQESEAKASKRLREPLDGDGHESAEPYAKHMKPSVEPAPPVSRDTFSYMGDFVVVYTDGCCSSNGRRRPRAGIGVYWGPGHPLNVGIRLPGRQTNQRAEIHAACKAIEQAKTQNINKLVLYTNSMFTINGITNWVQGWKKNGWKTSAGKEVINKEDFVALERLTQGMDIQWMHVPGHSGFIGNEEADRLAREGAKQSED
Briefly: EMSA. For orientation: A gel shift assay detects complexes by their altered migration in electrophoresis.

Another data set concerns the target RNaseH1 D210N;RPA (Homo sapiens;Homo sapiens, UniProt O60930;P27694;P15927;P35244 27-286;1-616;1-270;1-121, D210N|). Briefly: EMSA.

Chain of RNaseH1 D210N;RPA (P27694 whole entry, chain 2 of 3): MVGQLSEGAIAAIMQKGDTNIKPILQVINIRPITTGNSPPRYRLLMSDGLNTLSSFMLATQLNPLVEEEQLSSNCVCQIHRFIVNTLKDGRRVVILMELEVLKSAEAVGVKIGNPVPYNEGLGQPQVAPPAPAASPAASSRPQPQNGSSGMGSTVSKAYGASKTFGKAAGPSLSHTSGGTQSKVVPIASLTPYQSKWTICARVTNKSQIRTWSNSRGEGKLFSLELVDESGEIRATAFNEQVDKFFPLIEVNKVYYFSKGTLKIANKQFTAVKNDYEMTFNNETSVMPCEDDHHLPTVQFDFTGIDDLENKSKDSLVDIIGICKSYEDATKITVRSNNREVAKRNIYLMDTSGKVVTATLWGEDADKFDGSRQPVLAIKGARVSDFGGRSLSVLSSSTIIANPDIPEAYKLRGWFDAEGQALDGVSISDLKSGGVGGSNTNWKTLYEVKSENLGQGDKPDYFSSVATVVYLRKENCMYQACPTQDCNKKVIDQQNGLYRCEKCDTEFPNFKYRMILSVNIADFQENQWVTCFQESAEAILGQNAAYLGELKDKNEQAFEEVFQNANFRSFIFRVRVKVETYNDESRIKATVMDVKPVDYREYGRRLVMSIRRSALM
Chain of RNaseH1 D210N;RPA (P15927 whole entry, chain 3 of 3): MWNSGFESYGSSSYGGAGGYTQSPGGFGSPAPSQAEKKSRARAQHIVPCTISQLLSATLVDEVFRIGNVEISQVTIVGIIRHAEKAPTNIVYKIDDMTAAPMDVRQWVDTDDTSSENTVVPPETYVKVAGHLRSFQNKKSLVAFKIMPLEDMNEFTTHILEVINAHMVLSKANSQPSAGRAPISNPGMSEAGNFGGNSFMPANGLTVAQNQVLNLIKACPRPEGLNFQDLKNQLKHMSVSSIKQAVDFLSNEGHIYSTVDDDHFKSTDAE
Chain of RNaseH1 D210N;RPA (P35244 whole entry, chain 4 of 3): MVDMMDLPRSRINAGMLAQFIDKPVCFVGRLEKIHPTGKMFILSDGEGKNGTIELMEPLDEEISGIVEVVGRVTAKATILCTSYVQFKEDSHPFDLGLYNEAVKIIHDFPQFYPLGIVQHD

B1: R:D (25-bp RNA:DNA hybrid) (DNA:RNA)
RNA: GCAGCUGGCACGACAGGUAUGAAUC
DNA: GATTCATACCTGTCGTGCCAGCTGC
As for B1, the binding result with RNaseH1 D210N and with RNaseH1 D210N;RPA was “binds” throughout.
